Source: patent publication US20260053904A1 (BIOATLA, published 2026)

Assays:
[1] = molecular target: T1, recombinant human EpCAM extracellular domain (human, UniProt P16422 24-265); test: ELISA on human EpCAM, pH range 5.0 to 7.4
T1 construct: extracellular domain; Plate-coated antigen of the ELISAs; also called human EpCAM ECD; recombinant EpCAM antigen
T1 sequence (looked up): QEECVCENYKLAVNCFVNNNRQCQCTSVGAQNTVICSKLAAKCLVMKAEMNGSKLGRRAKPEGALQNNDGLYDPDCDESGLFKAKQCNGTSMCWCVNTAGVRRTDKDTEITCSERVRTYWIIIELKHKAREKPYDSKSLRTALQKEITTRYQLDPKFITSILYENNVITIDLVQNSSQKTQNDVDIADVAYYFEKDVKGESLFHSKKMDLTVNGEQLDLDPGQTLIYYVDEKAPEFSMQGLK

[2] = molecular target: T2, human EpCAM expressed on cells (CHO, Colo205, 293) (human, UniProt P16422 24-314); test: FACS on Colo205 cells, antibody at 1 ug/mL, pH 6.0 and pH 7.4
T2 construct: whole, on cells; also called CHO cells expressing human EpCAM; Colo205 cells expressing human EpCAM
T2 sequence (looked up): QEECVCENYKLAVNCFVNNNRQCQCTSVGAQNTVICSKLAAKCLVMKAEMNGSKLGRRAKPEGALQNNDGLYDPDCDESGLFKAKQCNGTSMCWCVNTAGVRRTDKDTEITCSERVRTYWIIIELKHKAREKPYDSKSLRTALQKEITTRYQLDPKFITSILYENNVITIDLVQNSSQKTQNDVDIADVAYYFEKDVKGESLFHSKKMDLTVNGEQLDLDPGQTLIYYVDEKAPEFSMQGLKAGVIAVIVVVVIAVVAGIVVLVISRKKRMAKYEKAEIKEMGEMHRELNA
Method: The binding activity of these anti-EpCAM antibodies to EpCAM expressing Colo205 cells were measured by fluorescence activated cell sorting (FACS) at two different pH values of 6.0 and 7.4. Different dosages of the antibodies of 10 μg/mL, 1 μg/mL, 0.1 μg/mL and 0.01 μg/mL were used.

[3] = molecular target: T1, recombinant human EpCAM extracellular …; test: ELISA on human EpCAM at pH 6.0 after heating the antibody for 1 h at 4, 37, 45, 55 or 60 C
Method: The thermostability of the humanized conditionally active anti-EpCAM antibodies was evaluated by measuring their binding activities after heat treatment. The binding activities of the humanized conditionally active anti-EpCAM antibodies to human EpCAM after heat treatment for one (1) hour at different temperatures at pH 6.0 and pH 7.4 were measured by ELISA.
(§1) The ELISA assay was performed using the following protocol: [0388] 1) Coat ELISA plates with 100 μL of 0.5 μg/mL (06_20_17 and 06_28_17 Experiments) or 1 μg/mL (07_06_17 and 07_11_17 Experiments) recombinant EpCAM antigen in carbonate-bicarbonate coating buffer [0389] 2) Cover plates with sealing film and incubate overnight at 4° C. [0390] 3) Decant plates and tap out residual liquid on a stack of paper towels [0391] […] 5) Add 200 μL of various pH incubation buffers to the wells according to the sample map.

[4] = molecular target: T3, cyno EpCAM expressed on 293 cells (cynomolgus monkey); test: FACS on 293 cells expressing cyno EpCAM, pH 6.0
T3 construct: whole, on cells; also called 293 cells expressing cyno EpCAM
T3 sequence (Q1WER1 24-314): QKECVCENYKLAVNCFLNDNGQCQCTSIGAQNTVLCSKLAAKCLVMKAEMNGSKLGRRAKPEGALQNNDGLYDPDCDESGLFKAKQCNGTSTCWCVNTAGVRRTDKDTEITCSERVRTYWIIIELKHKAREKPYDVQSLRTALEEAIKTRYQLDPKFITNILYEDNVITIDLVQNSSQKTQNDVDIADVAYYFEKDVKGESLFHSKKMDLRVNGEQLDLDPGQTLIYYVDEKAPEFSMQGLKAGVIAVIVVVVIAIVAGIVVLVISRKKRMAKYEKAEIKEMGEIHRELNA
Method: (§2) A similar FACS analysis was also carried out using 293 cells expressing cyno EpCAM. […] The EC50 values for binding to the 293 cells expressing cyno EpCAM by the humanized conditionally active anti-EpCAM antibodies are summarized in Table 11.

[5] = molecular target: T1, recombinant human EpCAM extracellular …; test: ELISA with pH titration, human EpCAM
Method: The binding activities of the humanized conditionally active anti-EpCAM antibodies to human EpCAM with pH titration were also measured by ELISA.
as §1

[6] = molecular target: T1, recombinant human EpCAM extracellular …; test: ELISA, human EpCAM, pH 6.0
Method: (§3) The binding activities of the humanized conditionally active anti-EpCAM antibodies to human EpCAM were measured by ELISA, using the template antibody BAP-1-5-01-06, as a control. The EC50 values of the humanized conditionally active anti-EpCAM antibodies for binding to human EpCAM at pH 6.0 and pH 7.4 are summarized in Table 5.
as §1

[7] = molecular target: T4, cyno EpCAM (recombinant, ELISA antigen) (cynomolgus monkey); test: ELISA, cyno EpCAM, pH 7.4
T4 construct: extracellular domain; also called cynomolgus EpCAM extracellular domain
Method: (§4) The binding activities of the humanized conditionally active anti-EpCAM antibodies to cyno EpCAM were similarly measured. The EC50 for binding to the cyno EpCAM at pH 6.0 and pH 7.4 for the humanized conditionally active anti-EpCAM antibodies are summarized in Table 7.
as §1

[8] = molecular target: T2, human EpCAM expressed on cells (CHO, …); test: FACS on Colo205 cells expressing human EpCAM, pH 6.0
Method: (§5) Binding activities of the humanized conditionally active anti-EpCAM antibodies to Colo205 cells expressing human EpCAM were measured by FACS at pH 6.0 and pH 7.4. […] The EC50 values for binding to the Colo205 cells expressing human EpCAM by the humanized conditionally active anti-EpCAM antibodies are summarized in Table 9.

[9] = molecular target: T4, cyno EpCAM (recombinant, ELISA antigen); test: ELISA with pH titration, cyno EpCAM
Method: The binding activities of the humanized conditionally active anti-EpCAM antibodies to cyno EpCAM with pH titration was similarly measured by ELISA.
as §1

[10] = molecular target: T5, chimeric human/mouse EpCAM-ECD 1 (Homo sapiens (Human), UniProt P16422 24-265); test: ELISA on purified His-tagged ECDs
T5 construct: also called ch1EpCAM-his; chimeric EpCAM-ECD 1
T5 chain: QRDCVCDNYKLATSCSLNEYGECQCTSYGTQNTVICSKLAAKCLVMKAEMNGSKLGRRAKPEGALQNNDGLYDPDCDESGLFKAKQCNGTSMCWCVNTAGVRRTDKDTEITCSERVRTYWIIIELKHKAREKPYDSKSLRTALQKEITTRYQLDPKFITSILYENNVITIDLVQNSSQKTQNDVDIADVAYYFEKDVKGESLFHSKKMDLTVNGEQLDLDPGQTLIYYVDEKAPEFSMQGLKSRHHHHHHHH
Description: (§6) Human, mouse and the four chimeric EpCAM extracellular domains were expressed with a C-terminal His-tag in CHO cells and purified.

[11] = molecular target: T6, mouse EpCAM-ECD with C-terminal His-tag (expressed in CHO cells) (mouse, UniProt Q99JW5 24-266); test: ELISA on purified His-tagged ECDs
T6 construct: extracellular domain
T6 sequence (looked up): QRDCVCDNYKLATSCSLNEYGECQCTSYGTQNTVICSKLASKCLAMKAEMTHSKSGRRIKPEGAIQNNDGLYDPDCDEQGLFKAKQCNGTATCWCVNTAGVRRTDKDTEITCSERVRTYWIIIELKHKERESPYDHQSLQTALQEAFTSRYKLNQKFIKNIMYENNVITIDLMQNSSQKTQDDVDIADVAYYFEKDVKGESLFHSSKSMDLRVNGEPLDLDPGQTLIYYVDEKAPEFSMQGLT
Description: as §6

[12] = molecular target: T3, cyno EpCAM expressed on 293 cells; test: FACS on 293 cells expressing cyno EpCAM, pH 7.4
Method: as §2

[13] = molecular target: T2, human EpCAM expressed on cells (CHO, …); test: FACS on 293 cells expressing human EpCAM, pH 6.0
Method: (§7) A similar FACS analysis was also carried out using 293 cells expressing human EpCAM. […] The EC50 values for binding to the 293 cells expressing human EpCAM by the humanized conditionally active anti-EpCAM antibodies are summarized in Table 10.

[14] = molecular target: T2, human EpCAM expressed on cells (CHO, …); test: FACS on Colo205 cells expressing human EpCAM, pH 7.4
Method: as §5

[15] = molecular target: T1, recombinant human EpCAM extracellular …; test: ELISA, human EpCAM, pH 7.4
Method: as §3, §1

[16] = molecular target: T2, human EpCAM expressed on cells (CHO, …); test: FACS on 293 cells expressing human EpCAM, pH 7.4
Method: as §7

[17] = molecular target: T4, cyno EpCAM (recombinant, ELISA antigen); test: ELISA, cyno EpCAM, pH 6.0
Method: as §4, §1

[18] = molecular target: T1, recombinant human EpCAM extracellular …; test: direct binding ELISA, human EpCAM, pH 7.4 (table prints IC50, the text paragraph 376 says EC50)
[19] = molecular target: T4, cyno EpCAM (recombinant, ELISA antigen); test: direct binding ELISA, cyno EpCAM, pH 7.4 (printed as IC50)
[20] = molecular target: T4, cyno EpCAM (recombinant, ELISA antigen); test: direct binding ELISA, cyno EpCAM, pH 6.0 (printed as IC50)
[21] = molecular target: T1, recombinant human EpCAM extracellular …; test: direct binding ELISA, human EpCAM, pH 6.0 (table prints IC50, the text paragraph 376 says EC50)
[22] = molecular target: T1, recombinant human EpCAM extracellular …; test: direct binding ELISA, human EpCAM; ratio of the printed IC50 at pH 7.4 to pH 6.0
[23] = molecular target: T4, cyno EpCAM (recombinant, ELISA antigen); test: direct binding ELISA, cyno EpCAM; ratio of the printed IC50 at pH 7.4 to pH 6.0

Binder | binding result [2] | binding result [3] | EC50 [4] [µg/mL] | EC50 [6] [µg/mL] | EC50 [7] [µg/mL] | EC50 [8] [µg/mL] | EC50 [12] [µg/mL] | EC50 [13] [µg/mL] | EC50 [14] [µg/mL] | EC50 [15] [µg/mL] | EC50 [16] [µg/mL] | EC50 [17] [µg/mL] | further results
BAP-105-01-03 (antibody, V domains shown) VH: QVQLQQSGAELAKPGASVKVSCKASGYTFTSYWMHWVKQRPGQGLEWIGYIRPSTGYTEYNQKFKDKATLTADKSSSTAYMQLSSLTFEDSAVYYCGDGDNWVGFANWGQGTLVTVSA VL: QIVLTQSPAIMSASLGEEIALTCSASSSISYMHWYQQKSGTSPKLLIYSTSNLASGVPSRFSGSGSGTFYSLTISSVEAEDAADYFCHQWSTYHTFGSGTKLEIK | binds |  |  |  |  |  |  |  |  |  |  |  | binding result [1]: binds
BAP-105-01-06 (antibody, V domains shown, also called BAP-1-5-01-06) VH: QVQLQQSGAELAKPGASVKVSCKASGYTFTSYWMHWVKQRPGQGLEWIGYIRPSTGYTEYNQKFKDKATLTADKSSSTAYMQLSSLTFEDSAVYYCGRGDNWVGFANWGQGTLVTVSA VL: QIVLTQSPAIMSASLGEEIALTCSASSSISYMHWYQQKSGTSPKLLIYSTSNLASGVPSRFSGSGSGTFYSLTISSVEAEDAADYFCHQWSTYETFGSGTKLEIK | binds | binds |  |  |  |  |  |  |  |  |  |  | 
105.4-05-04 (antibody, V domains shown) VH: EVQLVQSGAEVKKPGATVKISCKVSGYTFTSYWMHWIRQSPSRGLEWLGYIRPSTGYTEYNQKFKDRFTISRDDSKNTAYLQMNSLKTEDTAVYYCGRGDNWVGFANWGQGTLVTVSS VL: EIVMTQSPATLSVSPGERATLSCSASSSISYMHWYQQKPGKAPKLLIYSTSNLASGVPSRFSGSGSGTDFTLTISSLQPEDFATYYCHQWSTYETFGQGTKVEIK |  | binds |  |  |  |  |  |  |  |  |  |  | 
BAP-105.4-01-05 (antibody, V domains shown, Humanized) VH: EVQLVQSGAEVKKPGATVKISCKVSGYTFTSYWMHWIRQPPGKGLEWIGYIRPSTGYTEYNQKFKDRFTISRDNSKNTLYLQMNSLRAEDTAVYYCGRGDNWVGFANWGQGTLVTVSS VL: EIVLTQSPDFQSVTPKEKVTITCSASSSISYMHWYQQKPGKAPKLLIYSTSNLASGVPDRFSGSGSGTDFTLKISRVEAEDVGVYYCHQWSTYETFGQGTKVEIK |  |  | 1.6 | 0.0134 | 7.17 | 0.342 | 11.6 | 0.129 | 0.418 | 50 | 0.154 | 0.49 | pH inflection point [5]: 6.83 pH; pH inflection point [9]: 6.35 pH; binding result [10]: no binding; binding result [11]: no binding
BAP-105-01-01 (antibody, V domains shown, Non-conditionally active control; also called template antibody (WT)) VH: QVQLQQSGAELAKPGASVKVSCKASGYTFTSYWMHWVKQRPGQGLEWIGYIRPSTGYTEYNQKFKDKATLTADKSSSTAYMQLSSLTFEDSAVYYCGRGDNWVGFANWGQGTLVTVSA VL: QIVLTQSPAIMSASLGEEIALTCSASSSISYMHWYQQKSGTSPKLLIYSTSNLASGVPSRFSGSGSGTFYSLTISSVEAEDAADYFCHQWSTYHTFGSGTKLEIK |  |  | 0.625 | 0.00833 | 0.3 | 0.263 | 0.863 | 0.092 | 0.268 | 0.00781 | 0.125 | 0.0112 | IC50 [18]: 0.0423 µg/mL; IC50 [19]: 0.0416 µg/mL; IC50 [20]: 0.0288 µg/mL; IC50 [21]: 0.0586 µg/mL; ratio (pH7.4/pH6.0) [22]: 0.72; ratio (pH7.4/pH6.0) [23]: 1.44
